{"source": "patent US20210139610A1", "about": "“COMPOSITIONS AND METHODS FOR MEDIATING EPS” (priority 2018, published 2021)", "key": {"preformed NTHI biofilms": {"tested_on": "preformed NTHI biofilms", "assay": "Disruption of pre-formed NTHI biofilms (treatment after initial growth; LIVE/DEAD, CLSM, COMSTAT)", "format": "cell-based, Non-typeable Haemophilus influenzae", "conditions": "DNase (Pulmozyme) added at 24 h", "description": "(FIG. 18A) Biofilm growth was initiated then maintained for 24 hrs then treated for 16 hrs with 0 (SBHI Control), 0.1%, 1%, and 5% (w/v) of Phoshocellulose (P11). (FIG. 18B) Biofilm growth was initiated then maintained for 40 hrs in the presence of 0 (sBHI Control), 0.1%, 1%, and 5% (w/v) of (P11). Biofilms were washed with saline and stained with LIVE/DEAD® stain. Images were analyzed by COMSTAT to calculate average thickness and biomass. All images were captured with a 63× objective.\n21:65-7. Pulmozyme® was added either at seeding (biofilm prevention) or to pre-formed biofilms (biofilm disruption) (FIG. 6). The resultant biofilms were stained with LIVE/DEAD® and evaluated using CLSM and COMSTAT analysis.\nTo determine anti-biofilm activity of cation exchange resins on preformed biofilms (i.e. ability to disrupt an extant biofilm), NTHI growth was initiated and maintained for 24 hrs, then treated for 16 hrs with 0 (sBHI Control), 0.1, 1, or 5% (w/v) of P11 phosphocellulose (FIG. 18A). To determine the anti-biofilm activity of cation exchange resins to prevent biofilm formation, NTHI growth was initiated and maintained in the presence of 0 (sBHI Control), 0.1, 1, and 5% w/v of P11 phosphocellulose (FIG. 18B) or 5% (w/v) heparin sepharose (FIG. 19). Biofilms were washed with saline and stained with LIVE/DEAD®, visualized with confocal scanning microscopy (CSLM) and analyzed by COMSTAT to determine average thickness and biomass."}, "[1]": {"molecular_target": "T1, DNABII-polyamine dependent DNA structures (Haemophilus influenzae, UniProt P43722)", "T1 sequence (P43722 whole entry, looked up)": "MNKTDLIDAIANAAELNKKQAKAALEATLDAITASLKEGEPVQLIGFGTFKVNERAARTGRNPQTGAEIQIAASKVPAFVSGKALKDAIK", "assay": "EPS scaffold mimetic (gDNA + HU + spermidine) structures, CLSM", "format": "biochemical", "conditions": "gDNA 2 μg/ml + HU + spermidine; Pulmozyme treatment", "description": "FIGS. 4A-4B: Anti-DNABII disrupts DNABII-polyamine (PA) dependent structures. (FIG. 4A) DNA structures were formed by incubating spermidine (300 μM) and HU (1 μM) in buffer that contained genomic DNA (gDNA; 2 μg/ml) for 40 h. Immunofluorescence CLSM images of DNABII-polyamine dependent DNA structures. Probed for DNABII proteins (white; indicated on the right side of the image) and counterstained with DAPI (white; indicated on the left side of the image). DNABII polyamine dependent DNA structures incorporate DNABII proteins. (FIG. 4B) EPS structures were formed as in (FIG. 4A) for 24 h and treated for additional 16 h with 1:50 dilution of DNABII antiserum (indicated below the image). Fluorescence CLSM images stained with DAPI (white). DNABII-polyamine dependent DNA structures require DNABII proteins.\nFIG. 45: Polyamines and DNABII proteins stimulate Z-DNA, which is DNAse resistant. Immunofluorescence images of EPS scaffold mimetic formed de novo by addition of DNABII protein (HUNTHI, 500 nM) and spermidine (300 μM) to purified genomic DNA (2 μg/ml) and incubation at 37° C. for 16 h. […]\nApplicants hypothesized that DNABII and polyamines interact with eDNA synergistically to confer DNase resistance to mature biofilms. […] Degradation was assessed by agarose gel electrophoresis and UV illumination. […]"}}, "note": "“Also recorded” adds a separate entry of the source."}
{"molecule": "DNase: Pulmozyme, a recombinant human DNase used for management of cystic fibrosis patients (protein, UniProt P24855 23-282, looked up) Deoxyribonuclease-1: LKIAAFNIQTFGETKMSNATLVSYIVQILSRYDIALVQEVRDSHLTAVGKLLDNLNQDAPDTYHYVVSEPLGRNSYKERYLFVYRPDQVSAVDSYYYDDGCEPCGNDTFNREPAIVRFFSRFTEVREFAIVPLHAAPGDAVAEIDALYDVYLDVQEKWGLEDVMLMGDFNAGCSYVRPSQWSSIRLWTSPTFQWLIPDSADTTATPTHCAYDRIVVAGMLLRGAVVPDSALPFNFQAAYGLSDQLAQAISDHYPVEVMLK", "values": [{"measurement": "NTHI mature biofilm disruption", "setting": "preformed NTHI biofilms", "result": "unable to disrupt mature biofilms; also recorded: not disrupt extant biofilms"}, {"measurement": "effect of DNase on EPS scaffold mimetic structures", "setting": "[1]", "result": "DNA structures were resistant to DNase; also recorded: selectively eliminated B-DNA whereas Z-DNA remained intact"}]}
